Source: the Immune Epitope Database (IEDB)

How the values were obtained:
[1] = target: HLA-B*40:01; assay: IEDB peptide-MHC binding, purified MHC/competitive/radioactivity; filed as Kd, often an IC50 or EC50 that approximates it; ≥ and ≤ were set here for values at or beyond the usual limits of such assays
[2] = target: HLA-A*02:01; assay: IEDB peptide-MHC binding, purified MHC/direct/fluorescence; filed as Kd, often an IC50 or EC50 that approximates it; ≥ and ≤ were set here for values at or beyond the usual limits of such assays
[3] = target: HLA-A*02:01; assay: IEDB peptide-MHC binding, purified MHC/competitive/fluorescence; ≥ and ≤ were set here for values at or beyond the usual limits of such assays
[4] = target: HLA-A*26:01; assay: IEDB peptide-MHC binding, purified MHC/competitive/radioactivity; filed as Kd, often an IC50 or EC50 that approximates it; ≥ and ≤ were set here for values at or beyond the usual limits of such assays
[5] = target: HLA-A*30:02; assay: as above
[6] = target: HLA-A*24:02; assay: as above
[7] = target: HLA-A*01:01; assay: as above
[8] = target: HLA-B*53:01; assay: as above
[9] = target: HLA-A*03:01; assay: as above
[10] = target: HLA-A*11:01; assay: as above; conditions: source organism: Vaccinia virus WR
[11] = target: HLA-A*29:02; assay: as above; conditions: source organism: Vaccinia virus WR
[12] = target: HLA-A*31:01; assay: as above
[13] = target: HLA-A*33:01; assay: as above
[14] = target: HLA-A*68:01; assay: as above
[15] = target: HLA-A*69:01; assay: IEDB peptide-MHC binding, purified MHC/direct/fluorescence; filed as Kd, often an IC50 or EC50 that approximates it; ≥ and ≤ were set here for values at or beyond the usual limits of such assays
[16] = target: HLA-B*40:01; assay: as above
[17] = target: HLA-A*01:01; assay: as above
[18] = target: HLA-A*03:01; assay: as above
[19] = target: HLA-A*31:01; assay: as above
[20] = target: HLA-A*11:01; assay: as above
[21] = target: HLA-B*07:02; assay: as above
[22] = target: HLA-B*58:01; assay: as above
[23] = target: HLA-B*44:02; assay: IEDB peptide-MHC binding, purified MHC/competitive/radioactivity; filed as Kd, often an IC50 or EC50 that approximates it; ≥ and ≤ were set here for values at or beyond the usual limits of such assays
[24] = target: HLA-A*02:02; assay: as above
[25] = target: HLA-A*02:03; assay: as above
[26] = target: HLA-A*02:06; assay: as above
[27] = source organism: Dengue virus 3 Martinique/1243/1999
[28] = source organism: Mycobacterium tuberculosis
[29] = source organism: Dengue virus 2 Jamaica/1409/1983
[30] = source organism: Dengue virus 4 Philippines/H241/1956
[31] = source organism: Zaire ebolavirus
[32] = source organism: Dengue virus 1 Brazil/97-11/1997
[33] = source organism: Dengue virus 1 Singapore/S275/1990
[34] = source organism: Vaccinia virus WR
[35] = source organism: Sudan ebolavirus
[36] = source organism: Vibrio parahaemolyticus
[37] = source organism: Mycobacterium tuberculosis variant bovis
[38] = source organism: Plum pox virus
[39] = source organism: Coxiella burnetii
[40] = source organism: Mammarenavirus guanaritoense
[41] = source organism: Mammarenavirus whitewaterense
[42] = source organism: Pseudomonas aeruginosa UCBPP-PA14
[43] = source organism: Vaccinia virus
[44] = source organism: Haemophilus influenzae
[45] = source organism: Mammarenavirus caliense
[46] = source organism: Bacillus anthracis

AEPDGPTPEL
Kd [1, 27]: 10.7 nM

ALAAATPMV
Kd [2, 28]: 5.2 nM

ALFSSCPV
IC50 ([3]; source organism: Mus musculus): 291 nM

ALLDLGWTI
Kd [2, 28]: 0.9 nM

ATMTDDIGM
Kd [4, 29]: 8340 nM

AVVIVGLHGV
IC50 ([3]; source organism: Human alphaherpesvirus 1 strain 17): ≥ 50000 nM

AWNFLEVEDY
Kd [5, 30]: 85.3 nM

AYVVIGILTL
Kd [6, 27]: 938 nM

CSHHFHELV
Kd [7, 29]: ≥ 23400 nM

DVIPMVTQL
Kd [4, 30]: 112 nM

DVVDRGWGN
Kd [4, 30]: ≥ 77900 nM

EELPETMETL
Kd [1, 27]: 191 nM

EFIDGISLGL
Kd [4, 30]: 4720 nM

EGAFFLYDR
IC50 [3, 31]: ≥ 508000 nM

EPSKGWNDW
Kd [8, 32]: 1110 nM

ESEMIIPKIY
Kd [7, 33]: 6210 nM | Kd [4, 33]: 19900 nM | Kd [5, 33]: 11700 nM

ESMASLKSLY
Kd [9, 34]: 7.63 nM | Kd [10]: 116 nM | Kd [11]: ≥ 71400 nM | Kd [12, 34]: 3190 nM | Kd [13, 34]: 15900 nM | Kd [14, 34]: 4.63 nM

ETTKHAVSRG
Kd [4, 32]: ≥ 69700 nM

EVDSFSLGL
Kd [7, 33]: 10500 nM

FFLYDRLAS
IC50 [3, 35]: 40000 nM

FGVFTTNIW
Kd [8, 29]: 111 nM

FQLAAPSGF
Kd [2, 36]: 9000 nM | Kd [15, 36]: ≥ 20000 nM

GEPDARYEI
Kd [16, 37]: 70.2 nM

GETAWDFGSV
Kd [1, 30]: 388 nM

GEYRLRGEAR
Kd [1, 29]: 1900 nM

GMVPLHIPE
IC50 [3, 35]: ≥ 103000 nM

GSDGGLDDY
Kd ([17]; source organism: Homo sapiens): 58.1 nM | Kd ([15]; source organism: Homo sapiens): 1930 nM

GSQPGGPLK
Kd [18, 37]: 1570 nM

GTDAPCKIPF
Kd [7, 32]: ≥ 44700 nM

GTMHQEIFR
Kd [18, 38]: 83.9 nM | Kd [19, 38]: 41.9 nM

GVQPSATGR
Kd [18, 37]: ≥ 20000 nM

HPGAGKTKRY
Kd [8, 29]: ≥ 20200 nM

HVTRGAVLM
Kd [4, 29]: 4890 nM

IAGGMLIACY
Kd [5, 32]: 418 nM

IHLAIMAVF
Kd [6, 30]: 71.9 nM

IIVNNQESNK
Kd [9, 34]: 1130 nM | Kd [10]: 4400 nM | Kd [11]: ≥ 68200 nM | Kd [12, 34]: ≥ 29900 nM | Kd [13, 34]: ≥ 36200 nM | Kd [14, 34]: 3230 nM

ILCGWHLLK
Kd [18, 39]: 33.2 nM | Kd [20, 39]: 3.8 nM

ILQDMRNTI
Kd ([2]; source organism: Alto Paraguay hantavirus): 7.6 nM

IPYHIVNIV
Kd ([15]; source organism: Homo sapiens): 1340 nM | Kd ([21]; source organism: Homo sapiens): 3460 nM

KCDICTDEY
Kd ([17]; source organism: Homo sapiens): 806 nM

KERMVTFKV
Kd [1, 30]: 5760 nM

KLDPTNTLW
Kd ([22]; source organism: Mammarenavirus juninense): 66.9 nM

KLLPDTAAV
Kd ([2]; source organism: Amur virus): 2.1 nM

KLMSGKDVFY
Kd [7, 27]: 1480 nM | Kd [9, 27]: 15.9 nM | Kd [5, 27]: ≥ 69700 nM

KRHSTKYHL
Kd [6, 40]: ≥ 60300 nM | Kd [4, 40]: ≥ 77900 nM | Kd [5, 40]: ≥ 33300 nM

KYPNLNDLK
Kd [7, 41]: ≥ 41000 nM | Kd [4, 41]: ≥ 77900 nM | Kd [5, 41]: 9570 nM

LETRAETWM
Kd [1, 30]: 261 nM

LGLITNTIA
IC50 [3, 31]: 35300 nM

LIGLTARATW
Kd [8, 32]: 1810 nM

LLMEGLKLL
Kd ([2]; source organism: Mammarenavirus lassaense): ≤ 1 nM

LPLFIFSLKD
Kd [8, 27]: 2920 nM

LTEFQPHQL
Kd [7, 32]: 8760 nM

LTEFQPHQLW
Kd [7, 32]: 12900 nM | Kd [8, 32]: 990 nM

LYAVATTFIT
Kd ([6]; source organism: Dengue virus 2 Peru/IQT2913/1996): ≥ 23500 nM

MASTPASRY
Kd ([17]; source organism: Influenza A virus (A/Fujian/411/02-like(H3N2))): ≥ 20000 nM

MTTEDMLTVW
Kd [8, 27]: 122 nM

MVTGGIRRR
Kd [18, 42]: ≥ 20000 nM | Kd [19, 42]: 251 nM

NAGQFLSFA
IC50 [3, 31]: ≥ 121000 nM

NEMVLLQME
Kd [23, 29]: 907 nM

NLSPETLVG
IC50 [3, 43]: ≥ 170000 nM

NLTYVQLES
IC50 [3, 31]: 11000 nM

NPAVLRKLCI
Kd [8, 32]: 5200 nM

NPQKENDQY
Kd [8, 27]: 2080 nM

NPTVDGITVI
Kd [8, 29]: 2510 nM

NPVPVGNIY
Kd ([21]; source organism: Human immunodeficiency virus type 2 (ISOLATE D205,7)): ≥ 40300 nM

QIPSSSPTT
IC50 [3, 35]: 42800 nM

QLSKSEFNTY
Kd [7, 32]: 1390 nM | Kd [5, 32]: 71.1 nM

RFEAYGWQV
Kd [19, 44]: 924 nM | Kd [15, 44]: 337 nM | Kd [16, 44]: 227 nM

RNPQKENDQY
Kd [5, 27]: ≥ 69700 nM

RPEAAAGQL
Kd ([21]; source organism: Mycobacterium tuberculosis variant bovis BCG str. Pasteur 1173P2): 179 nM

RTPQDNQLAY
Kd [7, 32]: 703 nM | Kd [5, 32]: 267 nM

SEFKSRFFIW
Kd [7, 45]: 2210 nM | Kd [4, 45]: ≥ 69700 nM | Kd [5, 45]: 7480 nM

SELPETLETL
Kd [1, 29]: 7.2 nM

SFTVVSNGA
IC50 [3, 31]: ≥ 372000 nM

SLEKAAEVSW
Kd [23, 32]: 174 nM

SLIPDATHL
Kd ([2]; source organism: Lassa virus Josiah): 18.1 nM

SPSKRNQTF
Kd ([21]; source organism: Mammarenavirus amapariense): 66.8 nM

SRKTFDSEY
Kd [5, 29]: 3810 nM

STESHNQTF
Kd [7, 29]: 8210 nM

TAVPWNASW
Kd ([22]; source organism: Human immunodeficiency virus 1): 13 nM

TLAGVNVGE
IC50 [3, 31]: ≥ 211000 nM

TQSRPIQNV
IC50 [3, 31]: 14600 nM

TTDISEMGA
Kd [7, 30]: 188 nM

TTQDEGAAI
IC50 [3, 31]: ≥ 220000 nM

TVMDIISRR
Kd [4, 29]: 2710 nM | Kd [12, 29]: 17.9 nM | Kd [13, 29]: 11.1 nM | Kd [14, 29]: 3.87 nM

TWHYDEDNPY
Kd [5, 32]: 3070 nM

TWPKSHTLW
Kd [6, 27]: 39.8 nM

TYGLNTFTN
Kd [6, 29]: 1590 nM

VAELVHFLL
Kd ([6]; source organism: Homo sapiens): 149 nM

VAGGLLLAAY
Kd [5, 30]: 78.7 nM

VAIDLDPVVY
Kd [7, 32]: ≥ 33400 nM | Kd [5, 32]: 825 nM

VDLHPASAW
Kd [23, 32]: 80.2 nM

VEDYGFGMF
Kd [1, 30]: 965 nM

VILSLPRIA
IC50 ([3]; source organism: Variola virus): 1390 nM

VIRHVDGKIL
Kd [24, 34]: ≥ 70000 nM | Kd [25, 34]: ≥ 33400 nM | Kd [26, 34]: ≥ 69800 nM

VLNGAELSN
IC50 [3, 43]: ≥ 114000 nM

VLRGNRQGL
Kd [2, 46]: 4460 nM | Kd [15, 46]: ≥ 20000 nM

VLWDIPTPK
Kd ([20]; source organism: Yellow fever virus 17D): 4.4 nM

VTNSTLEVT
IC50 [3, 35]: ≥ 122000 nM

VYTQLCDHRL
Kd [6, 27]: 6.35 nM

WSAIFFTTSL
Kd [24, 40]: 2000 nM | Kd [25, 40]: 6990 nM | Kd [26, 40]: 1400 nM

YENLKYSVIV
Kd [1, 32]: 70.6 nM

YVDFREYEYD
Kd ([7]; source organism: Homo sapiens): 90 nM

YVDHYYRDY
Kd ([17]; source organism: Homo sapiens): 92.3 nM | Kd ([15]; source organism: Homo sapiens): 2000 nM
